The record followed here is article PMC4084727.

Data set [1] deals with T1, GST-Freud-2 (GST-hF2) (Homo sapiens, UniProt Q5T0F9 1-858).
T1 sequence: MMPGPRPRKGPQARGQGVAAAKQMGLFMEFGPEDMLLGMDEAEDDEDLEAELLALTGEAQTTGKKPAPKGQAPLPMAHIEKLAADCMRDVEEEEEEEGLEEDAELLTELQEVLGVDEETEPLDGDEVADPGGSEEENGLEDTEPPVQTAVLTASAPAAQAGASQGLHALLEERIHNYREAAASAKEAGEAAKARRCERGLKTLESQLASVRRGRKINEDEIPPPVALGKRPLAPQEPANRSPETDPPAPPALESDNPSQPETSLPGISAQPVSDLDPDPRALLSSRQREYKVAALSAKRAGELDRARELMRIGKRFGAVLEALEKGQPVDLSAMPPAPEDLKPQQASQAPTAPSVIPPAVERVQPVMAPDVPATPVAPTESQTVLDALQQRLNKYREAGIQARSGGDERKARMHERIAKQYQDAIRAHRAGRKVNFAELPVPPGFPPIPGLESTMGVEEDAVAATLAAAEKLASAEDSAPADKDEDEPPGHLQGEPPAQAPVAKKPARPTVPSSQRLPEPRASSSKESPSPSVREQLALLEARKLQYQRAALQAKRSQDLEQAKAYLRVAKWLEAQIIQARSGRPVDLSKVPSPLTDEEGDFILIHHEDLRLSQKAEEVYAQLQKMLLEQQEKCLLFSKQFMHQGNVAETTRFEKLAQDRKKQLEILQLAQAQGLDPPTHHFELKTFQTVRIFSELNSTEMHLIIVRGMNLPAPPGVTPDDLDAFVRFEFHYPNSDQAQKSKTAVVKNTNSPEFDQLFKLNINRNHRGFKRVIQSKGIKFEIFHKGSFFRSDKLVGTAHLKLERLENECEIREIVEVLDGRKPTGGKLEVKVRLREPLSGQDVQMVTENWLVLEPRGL
As to the kind of experiment: EMSA. In general terms: In EMSA bound probe runs differently from free probe, usually more slowly.

The target of data set [2] is T1, GST-Freud-2 (GST-hF2). As to the kind of experiment: competition.
Data set [3] addresses T1, GST-Freud-2 (GST-hF2). Put plainly: competition. This is another data set of the same source.
Data set [4] has as its target T1, GST-Freud-2 (GST-hF2). Put plainly: competition. This is another data set of the same source.
For data set [5], the target named is T1, GST-Freud-2 (GST-hF2). As to the kind of experiment: EMSA. This is another data set of the same source.

B1: 3'-DRE (-1597/-1565) (dsDNA)
DNA 1: AGGTGGCGACATAAAACCTCATTGCTTAGAACT
DNA 2: AGTTCTAAGCAATGAGGTTTTATGTCGCCACCT
For the molecule B1, the binding result in the data set with GST-Freud-2 (GST-hF2) [1] is “binds”.

B2: 17-bp 5' (-1624/-1608) (dsDNA)
DNA 1: AGATGGCACTCTAAAAC
DNA 2: GTTTTAGAGTGCCATCT
Regarding B2, the binding result with GST-Freud-2 (GST-hF2) [2] is given as “binds”.

B3: 19-bp 3' (-1597/-1578) (dsDNA)
DNA 1: AGGTGGCGACATAAAACCT
DNA 2: AGGTTTTATGTCGCCACCT
As for B3, the binding result with GST-Freud-2 (GST-hF2) [3] is “binds”.

B4: 12-bp 3' (-1578/-1566) (dsDNA)
DNA 1: CATTGCTTAGAA
DNA 2: TTCTAAGCAATG
Consider B4, for which, in the data set with GST-Freud-2 (GST-hF2) [4], the binding result is recorded as “no binding”.

B5: 5'-DRE (-1624/-1598) (dsDNA)
DNA 1: AGATGGCACTCTAAAACATTTGCCAGA
DNA 2: TCTGGCAAATGTTTTAGAGTGCCATCT
As for B5, the binding result with GST-Freud-2 (GST-hF2) [5] was “binds”.

B6: 16-bp 5' (-1613/-1598) (dsDNA)
DNA 1: TAAAACATTTGCCAGA
DNA 2: TCTGGCAAATGTTTTA
In the case of B6, the binding result in the data set with GST-Freud-2 (GST-hF2) [2] is “binds”.
